Earlier results, collected in PMC12378658.

Legend:
[1] = biological target: TSLP:TSLPR complex (Homo sapiens) (UniProt Q969D9)
TSLPR (Homo sapiens) = TSLPR (Homo sapiens) (UniProt Q9HC73)
UniProt Q9HC73, sequence (Q9HC73 23-231): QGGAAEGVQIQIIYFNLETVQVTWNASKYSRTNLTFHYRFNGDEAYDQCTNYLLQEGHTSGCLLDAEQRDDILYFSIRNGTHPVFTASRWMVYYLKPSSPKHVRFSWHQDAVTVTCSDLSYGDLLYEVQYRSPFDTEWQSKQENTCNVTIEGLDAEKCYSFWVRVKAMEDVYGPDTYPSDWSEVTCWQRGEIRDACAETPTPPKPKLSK

Row | Kd [1] | Kd (TSLPR (Homo sapiens)) | Substance
1 | 29 nM | – | IL-7Rα (from UniProt P16871)
2 | – | 32 nM | TSLP (from UniProt Q969D9)
